In the supplement of paper PMC9112550, “Optimization of the antimicrobial peptide Bac7 by deep mutational scanning” (BMC Biology, 2022):

Tested on: Escherichia coli TOP10
Assay: shrunken log2 fold change of peptide-encoding DNA abundance (4.5 h post-induction vs induction); higher = less antimicrobial activity (less host growth inhibition)
Conditions: time post-induction: 4.5 h; library: site-saturation at positions 5, 18, 19, 20
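Also: peptides expressed intracellularly from a pBAD plasmid library in pooled LB shake-flask culture, induced with 0.3% L-arabinose, DNA abundance read by NGS, three biological replicates, DESeq2 with apeglm shrinkage.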

RRIRDRPPRLPRPRPRPQTRPRP
shrunken log2 fold change: 0.138

RRIRCRPPRLPRPRPRPDNQPRP
shrunken log2 fold change: -0.696

RRIRPRPPRLPRPRPRPDYFPRP
shrunken log2 fold change: -0.503

RRIRQRPPRLPRPRPRPLATPRP
shrunken log2 fold change: 0.0953

RRIRFRPPRLPRPRPRPHIDPRP
shrunken log2 fold change: -0.335

RRIRFRPPRLPRPRPRPDGTPRP
shrunken log2 fold change: -0.256

RRIRGRPPRLPRPRPRPTWQPRP
shrunken log2 fold change: 0.731

RRIRTRPPRLPRPRPRPDLEPRP
shrunken log2 fold change: -0.00853

RRIRQRPPRLPRPRPRPTNDPRP
shrunken log2 fold change: -0.296

RRIRCRPPRLPRPRPRPQIEPRP
shrunken log2 fold change: -0.335

RRIRWRPPRLPRPRPRPPATPRP
shrunken log2 fold change: 1.06

RRIRKRPPRLPRPRPRPMCDPRP
shrunken log2 fold change: -0.0708

RRIRFRPPRLPRPRPRPVTCPRP
shrunken log2 fold change: -0.491

RRIRARPPRLPRPRPRPWMVPRP
shrunken log2 fold change: 0.0197

RRIRMRPPRLPRPRPRPMEMPRP
shrunken log2 fold change: 0.515

RRIRRRPPRLPRPRPRPTIHPRP
shrunken log2 fold change: -0.0346

RRIRHRPPRLPRPRPRPLDDPRP
shrunken log2 fold change: -0.172

RRIRDRPPRLPRPRPRPLWLPRP
shrunken log2 fold change: 0.399

RRIRMRPPRLPRPRPRPPTYPRP
shrunken log2 fold change: 0.306

RRIRFRPPRLPRPRPRPHVKPRP
shrunken log2 fold change: -0.0318

RRIRCRPPRLPRPRPRPCNEPRP
shrunken log2 fold change: -0.514

RRIRGRPPRLPRPRPRPWGWPRP
shrunken log2 fold change: 1.15

RRIRIRPPRLPRPRPRPPKHPRP
shrunken log2 fold change: 0.00437

RRIRKRPPRLPRPRPRPCREPRP
shrunken log2 fold change: 0.368

RRIRPRPPRLPRPRPRPIMPPRP
shrunken log2 fold change: -0.257

RRIRERPPRLPRPRPRPQRMPRP
shrunken log2 fold change: -0.411

RRIRTRPPRLPRPRPRPNSPPRP
shrunken log2 fold change: -0.221

RRIRNRPPRLPRPRPRPSPQPRP
shrunken log2 fold change: 0.162

RRIRVRPPRLPRPRPRPFGAPRP
shrunken log2 fold change: 0.258

RRIRPRPPRLPRPRPRPNIKPRP
shrunken log2 fold change: -0.322

RRIRKRPPRLPRPRPRPPCYPRP
shrunken log2 fold change: 0.202

RRIRVRPPRLPRPRPRPQGIPRP
shrunken log2 fold change: 0.0752

RRIRLRPPRLPRPRPRPDVWPRP
shrunken log2 fold change: 0.127

RRIRARPPRLPRPRPRPCHPPRP
shrunken log2 fold change: 0.194

RRIRGRPPRLPRPRPRPRIKPRP
shrunken log2 fold change: 0.487

RRIRGRPPRLPRPRPRPCNDPRP
shrunken log2 fold change: 0.376

RRIRSRPPRLPRPRPRPGTTPRP
shrunken log2 fold change: 0.132

RRIRNRPPRLPRPRPRPILEPRP
shrunken log2 fold change: 0.109

RRIRMRPPRLPRPRPRPVLFPRP
shrunken log2 fold change: 0.289

RRIRVRPPRLPRPRPRPLWDPRP
shrunken log2 fold change: 0.00404

RRIRGRPPRLPRPRPRPVFTPRP
shrunken log2 fold change: 0.523

RRIRHRPPRLPRPRPRPWMSPRP
shrunken log2 fold change: -0.0135

RRIRARPPRLPRPRPRPWACPRP
shrunken log2 fold change: 0.0376

RRIRTRPPRLPRPRPRPVASPRP
shrunken log2 fold change: 0.0362

RRIRQRPPRLPRPRPRPQDYPRP
shrunken log2 fold change: -0.685

RRIRFRPPRLPRPRPRPGFDPRP
shrunken log2 fold change: 0.0857

RRIRFRPPRLPRPRPRPPYAPRP
shrunken log2 fold change: 0.0335

RRIRCRPPRLPRPRPRPMSWPRP
shrunken log2 fold change: -0.159

RRIRQRPPRLPRPRPRPEQDPRP
shrunken log2 fold change: 0.311

RRIRSRPPRLPRPRPRPTASPRP
shrunken log2 fold change: 0.116

RRIRDRPPRLPRPRPRPDQYPRP
shrunken log2 fold change: 0.00642

RRIRPRPPRLPRPRPRPEFMPRP
shrunken log2 fold change: 0.0793

RRIRLRPPRLPRPRPRPLWTPRP
shrunken log2 fold change: -0.0559

RRIRNRPPRLPRPRPRPGCQPRP
shrunken log2 fold change: -0.108

RRIRHRPPRLPRPRPRPKDWPRP
shrunken log2 fold change: 0.207

RRIRKRPPRLPRPRPRPDFHPRP
shrunken log2 fold change: -0.312

RRIRNRPPRLPRPRPRPYSRPRP
shrunken log2 fold change: -0.00947

RRIRVRPPRLPRPRPRPKDWPRP
shrunken log2 fold change: 0.0589

RRIRFRPPRLPRPRPRPTEWPRP
shrunken log2 fold change: 0.00734

RRIRSRPPRLPRPRPRPIVHPRP
shrunken log2 fold change: -0.2

RRIRLRPPRLPRPRPRPNEFPRP
shrunken log2 fold change: -0.168

RRIRHRPPRLPRPRPRPGEQPRP
shrunken log2 fold change: 0.0974

RRIRCRPPRLPRPRPRPGTEPRP
shrunken log2 fold change: 0.078

RRIRLRPPRLPRPRPRPQVFPRP
shrunken log2 fold change: 0.502

RRIRPRPPRLPRPRPRPPWGPRP
shrunken log2 fold change: 0.34

RRIRHRPPRLPRPRPRPDTDPRP
shrunken log2 fold change: -0.0683

RRIRDRPPRLPRPRPRPSLTPRP
shrunken log2 fold change: 0.154

RRIRIRPPRLPRPRPRPIWNPRP
shrunken log2 fold change: -0.263

RRIRFRPPRLPRPRPRPGGWPRP
shrunken log2 fold change: 0.654

RRIRVRPPRLPRPRPRPDFPPRP
shrunken log2 fold change: 0.0164

RRIRGRPPRLPRPRPRPFVWPRP
shrunken log2 fold change: 0.278

RRIRSRPPRLPRPRPRPNEFPRP
shrunken log2 fold change: 0.00763

RRIRFRPPRLPRPRPRPDLCPRP
shrunken log2 fold change: -0.0489

RRIRTRPPRLPRPRPRPQEVPRP
shrunken log2 fold change: -0.0102

RRIRARPPRLPRPRPRPNDVPRP
shrunken log2 fold change: 0.128

RRIRHRPPRLPRPRPRPTWHPRP
shrunken log2 fold change: -0.073

RRIRSRPPRLPRPRPRPPESPRP
shrunken log2 fold change: 0.877

RRIRQRPPRLPRPRPRPQLDPRP
shrunken log2 fold change: 0.188

RRIRGRPPRLPRPRPRPKCSPRP
shrunken log2 fold change: 0.704

RRIRMRPPRLPRPRPRPMHAPRP
shrunken log2 fold change: 0.327

RRIRYRPPRLPRPRPRPYIHPRP
shrunken log2 fold change: -1.31

RRIRWRPPRLPRPRPRPMQHPRP
shrunken log2 fold change: 0.596

RRIRSRPPRLPRPRPRPANAPRP
shrunken log2 fold change: 0.438

RRIRRRPPRLPRPRPRPFMIPRP
shrunken log2 fold change: -0.394

RRIRARPPRLPRPRPRPNYMPRP
shrunken log2 fold change: -0.2

RRIRMRPPRLPRPRPRPNFFPRP
shrunken log2 fold change: 0.128

RRIRFRPPRLPRPRPRPTEKPRP
shrunken log2 fold change: -0.0949

RRIRVRPPRLPRPRPRPMFDPRP
shrunken log2 fold change: -0.338

RRIRARPPRLPRPRPRPMWVPRP
shrunken log2 fold change: -0.0205

RRIRDRPPRLPRPRPRPKKNPRP
shrunken log2 fold change: 0.125

RRIRQRPPRLPRPRPRPLPHPRP
shrunken log2 fold change: 0.137

RRIRGRPPRLPRPRPRPEGEPRP
shrunken log2 fold change: 1.97

RRIRIRPPRLPRPRPRPKKLPRP
shrunken log2 fold change: -0.219

RRIRIRPPRLPRPRPRPTGGPRP
shrunken log2 fold change: -0.00471

RRIRMRPPRLPRPRPRPLGLPRP
shrunken log2 fold change: 0.717

RRIRIRPPRLPRPRPRPWREPRP
shrunken log2 fold change: 0.158

RRIRCRPPRLPRPRPRPLCAPRP
shrunken log2 fold change: 0.12

RRIRRRPPRLPRPRPRPARNPRP
shrunken log2 fold change: 3.18

RRIRTRPPRLPRPRPRPCFGPRP
shrunken log2 fold change: 0.000833

RRIRARPPRLPRPRPRPLIMPRP
shrunken log2 fold change: -0.144

RRIRYRPPRLPRPRPRPQKNPRP
shrunken log2 fold change: -0.555

RRIRERPPRLPRPRPRPTDTPRP
shrunken log2 fold change: -0.415

RRIRHRPPRLPRPRPRPPWCPRP
shrunken log2 fold change: 0.0341

RRIRQRPPRLPRPRPRPISLPRP
shrunken log2 fold change: -0.527

RRIRPRPPRLPRPRPRPCLHPRP
shrunken log2 fold change: -0.248

RRIRWRPPRLPRPRPRPAHPPRP
shrunken log2 fold change: 0.304

RRIRWRPPRLPRPRPRPTYLPRP
shrunken log2 fold change: 0.0592

RRIRWRPPRLPRPRPRPVTPPRP
shrunken log2 fold change: 0.666

RRIRRRPPRLPRPRPRPKFWPRP
shrunken log2 fold change: 0.278

RRIRVRPPRLPRPRPRPCVTPRP
shrunken log2 fold change: -0.0293

RRIRPRPPRLPRPRPRPVLTPRP
shrunken log2 fold change: 0.0816

RRIRCRPPRLPRPRPRPNTAPRP
shrunken log2 fold change: -0.22

RRIRERPPRLPRPRPRPWNDPRP
shrunken log2 fold change: -0.342

RRIRPRPPRLPRPRPRPNYWPRP
shrunken log2 fold change: -0.234

RRIRQRPPRLPRPRPRPVSWPRP
shrunken log2 fold change: 1.47

RRIRHRPPRLPRPRPRPFVEPRP
shrunken log2 fold change: -0.45

RRIRQRPPRLPRPRPRPEWSPRP
shrunken log2 fold change: 0.0925

RRIRKRPPRLPRPRPRPVDHPRP
shrunken log2 fold change: 0.147

RRIRRRPPRLPRPRPRPAEWPRP
shrunken log2 fold change: 0.136

RRIRTRPPRLPRPRPRPNKPPRP
shrunken log2 fold change: -0.0031

RRIRGRPPRLPRPRPRPMPTPRP
shrunken log2 fold change: 0.612

RRIRRRPPRLPRPRPRPIHIPRP
shrunken log2 fold change: -0.579

RRIRKRPPRLPRPRPRPVQGPRP
shrunken log2 fold change: -0.0824

RRIRWRPPRLPRPRPRPMLTPRP
shrunken log2 fold change: 0.391

RRIRKRPPRLPRPRPRPVQLPRP
shrunken log2 fold change: 0.349

RRIRARPPRLPRPRPRPPCRPRP
shrunken log2 fold change: 0.517

RRIRWRPPRLPRPRPRPEQYPRP
shrunken log2 fold change: -0.171

RRIRCRPPRLPRPRPRPPIFPRP
shrunken log2 fold change: -0.197

RRIRTRPPRLPRPRPRPPHTPRP
shrunken log2 fold change: 0.0399

RRIRGRPPRLPRPRPRPFWMPRP
shrunken log2 fold change: 0.103

RRIRPRPPRLPRPRPRPYPGPRP
shrunken log2 fold change: -0.159

RRIRKRPPRLPRPRPRPLYPPRP
shrunken log2 fold change: -0.177

RRIRERPPRLPRPRPRPYAGPRP
shrunken log2 fold change: -0.000921

RRIRYRPPRLPRPRPRPMQHPRP
shrunken log2 fold change: -0.17

RRIRKRPPRLPRPRPRPNADPRP
shrunken log2 fold change: 0.0182

RRIRYRPPRLPRPRPRPKQGPRP
shrunken log2 fold change: 0.0737

RRIRVRPPRLPRPRPRPMALPRP
shrunken log2 fold change: -0.169

RRIRSRPPRLPRPRPRPLPVPRP
shrunken log2 fold change: 0.0687

RRIRERPPRLPRPRPRPGRYPRP
shrunken log2 fold change: -0.443

RRIRYRPPRLPRPRPRPCNLPRP
shrunken log2 fold change: -0.958

RRIRFRPPRLPRPRPRPVNCPRP
shrunken log2 fold change: -0.15

RRIRPRPPRLPRPRPRPYDSPRP
shrunken log2 fold change: -0.977

RRIRARPPRLPRPRPRPILCPRP
shrunken log2 fold change: 0.165

RRIRFRPPRLPRPRPRPGCRPRP
shrunken log2 fold change: 0.00327

RRIRKRPPRLPRPRPRPGSKPRP
shrunken log2 fold change: -0.0334

RRIRMRPPRLPRPRPRPGGTPRP
shrunken log2 fold change: 0.722

RRIRGRPPRLPRPRPRPRYSPRP
shrunken log2 fold change: -0.173

RRIRNRPPRLPRPRPRPCDSPRP
shrunken log2 fold change: 0.11

RRIRRRPPRLPRPRPRPYHMPRP
shrunken log2 fold change: -0.254

RRIRTRPPRLPRPRPRPTHSPRP
shrunken log2 fold change: 0.384
